Legend:
[1] = target: human plasma fibronectin (human) (UniProt P02751); test: ELISA on coated antigen, background subtracted
[2] = target: large isoform of tenascin-C (UniProt P24821); test: ELISA on coated antigen, background subtracted
large isoform of tenascin-C, sequence (P24821 23-2201): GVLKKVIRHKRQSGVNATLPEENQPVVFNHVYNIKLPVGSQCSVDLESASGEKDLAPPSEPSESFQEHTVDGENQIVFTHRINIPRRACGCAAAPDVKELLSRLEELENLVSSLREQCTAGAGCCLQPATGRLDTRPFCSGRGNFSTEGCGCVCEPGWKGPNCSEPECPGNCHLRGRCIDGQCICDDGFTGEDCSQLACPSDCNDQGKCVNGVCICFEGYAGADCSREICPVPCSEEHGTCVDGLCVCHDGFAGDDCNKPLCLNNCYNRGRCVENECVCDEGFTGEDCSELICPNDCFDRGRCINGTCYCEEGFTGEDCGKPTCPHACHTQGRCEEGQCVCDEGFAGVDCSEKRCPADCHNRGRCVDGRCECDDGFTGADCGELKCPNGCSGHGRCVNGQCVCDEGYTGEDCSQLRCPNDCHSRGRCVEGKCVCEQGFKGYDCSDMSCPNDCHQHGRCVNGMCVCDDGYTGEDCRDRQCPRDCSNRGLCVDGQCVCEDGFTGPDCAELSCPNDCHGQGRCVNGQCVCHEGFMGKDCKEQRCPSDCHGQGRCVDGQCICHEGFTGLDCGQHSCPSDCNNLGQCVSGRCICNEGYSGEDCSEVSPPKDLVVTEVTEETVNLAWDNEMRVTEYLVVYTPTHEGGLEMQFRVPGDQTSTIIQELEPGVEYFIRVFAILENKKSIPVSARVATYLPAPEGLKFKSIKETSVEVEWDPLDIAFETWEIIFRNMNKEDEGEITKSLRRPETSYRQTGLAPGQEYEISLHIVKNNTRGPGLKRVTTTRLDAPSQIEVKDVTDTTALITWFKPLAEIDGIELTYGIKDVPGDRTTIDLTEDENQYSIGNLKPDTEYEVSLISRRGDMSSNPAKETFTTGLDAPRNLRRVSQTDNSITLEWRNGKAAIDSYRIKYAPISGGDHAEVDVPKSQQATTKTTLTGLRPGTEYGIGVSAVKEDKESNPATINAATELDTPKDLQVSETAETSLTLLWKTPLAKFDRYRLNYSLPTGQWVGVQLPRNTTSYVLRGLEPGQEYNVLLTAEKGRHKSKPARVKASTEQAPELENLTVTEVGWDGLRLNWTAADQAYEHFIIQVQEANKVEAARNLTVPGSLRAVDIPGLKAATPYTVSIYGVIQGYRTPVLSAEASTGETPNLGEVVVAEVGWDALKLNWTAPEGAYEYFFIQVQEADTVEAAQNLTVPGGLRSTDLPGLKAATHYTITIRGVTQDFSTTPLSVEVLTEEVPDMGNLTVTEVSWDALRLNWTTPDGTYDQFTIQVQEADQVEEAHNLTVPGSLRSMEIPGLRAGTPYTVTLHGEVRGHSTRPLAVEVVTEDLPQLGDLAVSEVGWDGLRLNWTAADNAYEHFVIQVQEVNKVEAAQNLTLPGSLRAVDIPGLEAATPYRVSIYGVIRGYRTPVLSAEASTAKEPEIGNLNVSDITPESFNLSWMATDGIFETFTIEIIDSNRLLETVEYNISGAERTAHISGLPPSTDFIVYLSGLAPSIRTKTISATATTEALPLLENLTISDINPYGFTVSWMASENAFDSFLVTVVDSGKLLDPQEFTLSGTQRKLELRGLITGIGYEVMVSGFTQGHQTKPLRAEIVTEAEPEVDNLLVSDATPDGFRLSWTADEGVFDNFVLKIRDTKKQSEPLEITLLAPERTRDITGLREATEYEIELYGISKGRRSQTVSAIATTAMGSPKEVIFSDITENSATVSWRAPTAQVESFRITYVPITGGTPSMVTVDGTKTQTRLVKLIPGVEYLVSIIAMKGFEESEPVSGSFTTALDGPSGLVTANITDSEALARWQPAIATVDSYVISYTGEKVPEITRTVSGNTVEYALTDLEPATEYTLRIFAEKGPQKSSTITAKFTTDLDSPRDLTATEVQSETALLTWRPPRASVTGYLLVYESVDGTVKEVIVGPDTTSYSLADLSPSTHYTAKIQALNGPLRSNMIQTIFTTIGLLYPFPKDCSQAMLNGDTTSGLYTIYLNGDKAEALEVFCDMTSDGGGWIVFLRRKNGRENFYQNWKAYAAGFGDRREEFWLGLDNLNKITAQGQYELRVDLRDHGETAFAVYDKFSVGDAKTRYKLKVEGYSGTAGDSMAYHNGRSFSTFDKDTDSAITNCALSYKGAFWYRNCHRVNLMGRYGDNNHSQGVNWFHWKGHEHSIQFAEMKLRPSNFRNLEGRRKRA

B1: scFv CGS-1 (scFv, V domains shown)
VH: QVQLVESGGGLVQPGGSLRLSCAVSGFTFSSYAMSWVRQAPGKGLEWVSAISGSGGSTYYADSVKGRFTISRDNSKNTLYLQMNSLRAEDTAVYYCARSLPKWGQGTLVTVSR
VL: SSELTQDPAVSVALGQTVRITCQGDSLRSYYASWYQQKPGQAPVLVTYGKNNRPSGIPDRFSGSSSGNTASLTITGAQAEDEADYYCNSSPVVLNGVVFGGGTKLTVL
Question: B1 was tested. Which OD at 405 nm [1] did it give?
Answer: Its OD at 405 nm is 0.07 OD 405 nm.

Question: What about the OD at 405 nm [2] of the same binder?
Answer: The OD at 405 nm was 0.01 OD 405 nm.

Reference: US8703143
